# No end group written: not given here.
# T1: BSA conjugated CD28 stalk region dimeric peptide (human, not fully specified (C-terminus); also: hydrazide-terminated peptide conjugated to S-4FB modified BSA, dimeric peptide)
# T1 construct: Dimeric peptide; dimerization confirmed on a non-denaturing gel; also called stalk region peptide; dimeric human CD28 stalk region peptide
# T1 peptide: GKHLCPSPLFPGPSKPK
# B1: clone M9 (antibody, V domains shown)
# VH: DVKLVESGGGLVKLGGSLKLSCVASGFTFSSYYMSWVRQTPEKRLEWVATISDGGDNTYYAGTVTGRFTISRDFAKNTLYLQMNSLTSEDTAVYYCARIHWPYYFDSWGQGTTLTVSS
# VL: QFVLSQSPAILSASPGEMLTMTCRASSSVSYMNWYQQKPGSSPKPWIYATSDLASGVPARFSGSGSGTSYSLTISRVEAEDAATYYCQQWSSHPPTFGGGTKLEIR
# notes: also called 4G07; antibody M9
# B2: Antibody #2 (antibody, mouse IgG2b, kappa, V domains shown)
# VH: QVQLQQSGAELARPGASVKLSCKASGYTFTSYWMQWIKKRPGQGLEWIGAIYPGDGDTRYTQKFKGKATLTADKSSTTAYMQLSSLASEDSAVYFCARNYRYSSFGYWGQGTLVTVSA
# VL: DIVMTQSPSSLTVTAGEKVTLSCKSSQSLLNSGNQKNYLTWYQQKPGQPPQLLIYWASTRESGVPDRFTGSGSGTDFTLTISSVQAEDLAVYYCQSDYSYPLTFGAGTKLELKR
# B3: Antibody #1 (antibody, mouse IgG1, kappa, V domains shown)
# VH: QIQLVQSGPELKKPGETVKISCKASGYTLTNYGMNWVKQAPGKGLKWMGWINTYTGKPTYVDDFKGRFAFSLETSASTAYLQINNLKNEDTATYFCARGDANQQFAYWGQGTLVTVSA
# VL: DIKMTQSPSSMYASLGERVTITCKASQDINSYLSWFQQKPGKSPKTLIYRANRLVDGVPSRFSGSGSGQDYSLTISSLEYDDMGIYYCLQYDEFPPTFGAGTKLELKR
# How the values were obtained:
# [1] = biological target: Irrelevant control (Table 1); experiment: ELISA, same clone on the irrelevant control; unit not given
# [2] = biological target: T1, BSA conjugated CD28 stalk region …; experiment: ELISA, antigen on plate, serial dilution of antibody
# [3] = biological target: T2, recombinant human CD28 (R&D systems, Cat. No. 342-CD; human CD28-Ig chimera) (human, UniProt P10747 19-152); experiment: direct ELISA, recombinant human sCD28 on maxisorp plates
# T2 construct: extracellular domain; also called rhCD28; recombinant human sCD28; not shown: Ig (Fc) portion of the bought chimera; not specified
# [4] = biological target: T2, recombinant human CD28 (R&D systems, …); experiment: direct ELISA, recombinant human sCD28 on maxisorp plates; reference CD28.2
binder,measurement,setting,value
B1,ELISA signal on irrelevant control,[1],0.06
same,binding result,[2],binds
B2,binding result,[3],binds
B3,fold detection against CD28.2,[4],~10 fold

# Source: US20210047411A1 (BIOND BIOLOGICS, published 2021)
